Measurements reported in the supplement of paper PMC9112550, “Optimization of the antimicrobial peptide Bac7 by deep mutational scanning” (BMC Biology, 2022).
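Also: peptides expressed intracellularly from a pBAD plasmid library in pooled LB shake-flask culture, induced with 0.3% L-arabinose, DNA abundance read by NGS, three biological replicates, DESeq2 with apeglm shrinkage.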

These sequences were tested on Escherichia coli TOP10 (assay: shrunken log2 fold change of peptide-encoding DNA abundance (4.5 h post-induction vs induction); higher = less antimicrobial activity (less host growth inhibition)). Details: time post-induction: 4.5 h; library: site-saturation at positions 5, 18, 19, 20.
With RRIRSRPPRLPRPRPRPHSFPRP the “shrunken log2 fold change” value was 0.176. For RRIRSRPPRLPRPRPRPHSMPRP, the “shrunken log2 fold change” value was -0.521. For RRIRSRPPRLPRPRPRPHTGPRP, the “shrunken log2 fold change” value was -0.703. In the case of RRIRSRPPRLPRPRPRPHVSPRP, the “shrunken log2 fold change” value is reported as -0.0482. RRIRSRPPRLPRPRPRPHWLPRP was tested, and the “shrunken log2 fold change” value was -0.614. With RRIRSRPPRLPRPRPRPHYCPRP the “shrunken log2 fold change” value was -0.289. In the case of RRIRSRPPRLPRPRPRPHYYPRP, the “shrunken log2 fold change” value is reported as -0.581. With RRIRSRPPRLPRPRPRPIDTPRP the “shrunken log2 fold change” value was -0.117. In the case of RRIRSRPPRLPRPRPRPIFCPRP, the “shrunken log2 fold change” value is reported as -0.0166. RRIRSRPPRLPRPRPRPIFEPRP was tested, and the “shrunken log2 fold change” value was 0.0577. In the case of RRIRSRPPRLPRPRPRPIFWPRP, the “shrunken log2 fold change” value is reported as 0.403. In the case of RRIRSRPPRLPRPRPRPIHCPRP, the “shrunken log2 fold change” value is reported as -0.452. In the case of RRIRSRPPRLPRPRPRPIHWPRP, the “shrunken log2 fold change” value is reported as 0.151. In the case of RRIRSRPPRLPRPRPRPIIVPRP, the “shrunken log2 fold change” value is reported as 0.0771. With RRIRSRPPRLPRPRPRPIKWPRP the “shrunken log2 fold change” value was -0.197. In the case of RRIRSRPPRLPRPRPRPILCPRP, the “shrunken log2 fold change” value is reported as -0.35. In the case of RRIRSRPPRLPRPRPRPILDPRP, the “shrunken log2 fold change” value is reported as -0.152. With RRIRSRPPRLPRPRPRPILEPRP the “shrunken log2 fold change” value was 0.0161. For RRIRSRPPRLPRPRPRPIMSPRP, the “shrunken log2 fold change” value was -0.173. In the case of RRIRSRPPRLPRPRPRPINHPRP, the “shrunken log2 fold change” value is reported as -0.662. With RRIRSRPPRLPRPRPRPIPQPRP the “shrunken log2 fold change” value was -0.402. RRIRSRPPRLPRPRPRPISCPRP was tested, and the “shrunken log2 fold change” value was -0.0707. In the case of RRIRSRPPRLPRPRPRPISGPRP, the “shrunken log2 fold change” value is reported as -0.176. RRIRSRPPRLPRPRPRPISMPRP was tested, and the “shrunken log2 fold change” value was -0.145. For RRIRSRPPRLPRPRPRPITRPRP, the “shrunken log2 fold change” value was -0.221. In the case of RRIRSRPPRLPRPRPRPITSPRP, the “shrunken log2 fold change” value is reported as -0.0517. With RRIRSRPPRLPRPRPRPIYLPRP the “shrunken log2 fold change” value was -0.336. RRIRSRPPRLPRPRPRPKAGPRP was tested, and the “shrunken log2 fold change” value was 0.19. For RRIRSRPPRLPRPRPRPKANPRP, the “shrunken log2 fold change” value was 0.126. With RRIRSRPPRLPRPRPRPKCPPRP the “shrunken log2 fold change” value was -0.118. In the case of RRIRSRPPRLPRPRPRPKDNPRP, the “shrunken log2 fold change” value is reported as -0.232. For RRIRSRPPRLPRPRPRPKEFPRP, the “shrunken log2 fold change” value was -0.216. In the case of RRIRSRPPRLPRPRPRPKGQPRP, the “shrunken log2 fold change” value is reported as 0.0791. With RRIRSRPPRLPRPRPRPKHQPRP the “shrunken log2 fold change” value was 0.155. RRIRSRPPRLPRPRPRPKIAPRP was tested, and the “shrunken log2 fold change” value was 0.0525. In the case of RRIRSRPPRLPRPRPRPKIFPRP, the “shrunken log2 fold change” value is reported as -0.0746. With RRIRSRPPRLPRPRPRPKIWPRP the “shrunken log2 fold change” value was 0.141. With RRIRSRPPRLPRPRPRPKKNPRP the “shrunken log2 fold change” value was 0.267. In the case of RRIRSRPPRLPRPRPRPKLTPRP, the “shrunken log2 fold change” value is reported as -0.06. RRIRSRPPRLPRPRPRPKQAPRP was tested, and the “shrunken log2 fold change” value was -0.0378. For RRIRSRPPRLPRPRPRPKRKPRP, the “shrunken log2 fold change” value was 0.458. RRIRSRPPRLPRPRPRPKSDPRP was tested, and the “shrunken log2 fold change” value was -0.082. RRIRSRPPRLPRPRPRPKSRPRP was tested, and the “shrunken log2 fold change” value was -0.0201. With RRIRSRPPRLPRPRPRPKWNPRP the “shrunken log2 fold change” value was -0.154. RRIRSRPPRLPRPRPRPKWTPRP was tested, and the “shrunken log2 fold change” value was -0.0493. RRIRSRPPRLPRPRPRPLAHPRP was tested, and the “shrunken log2 fold change” value was -0.0709. With RRIRSRPPRLPRPRPRPLANPRP the “shrunken log2 fold change” value was 0.271. In the case of RRIRSRPPRLPRPRPRPLAPPRP, the “shrunken log2 fold change” value is reported as 0.223. RRIRSRPPRLPRPRPRPLDAPRP was tested, and the “shrunken log2 fold change” value was 0.259. With RRIRSRPPRLPRPRPRPLDSPRP the “shrunken log2 fold change” value was -0.0139. RRIRSRPPRLPRPRPRPLDTPRP was tested, and the “shrunken log2 fold change” value was -0.157. For RRIRSRPPRLPRPRPRPLFNPRP, the “shrunken log2 fold change” value was -0.632. In the case of RRIRSRPPRLPRPRPRPLFVPRP, the “shrunken log2 fold change” value is reported as -0.188. For RRIRSRPPRLPRPRPRPLGLPRP, the “shrunken log2 fold change” value was 0.204. RRIRSRPPRLPRPRPRPLHIPRP was tested, and the “shrunken log2 fold change” value was -0.0437. With RRIRSRPPRLPRPRPRPLIGPRP the “shrunken log2 fold change” value was -0.118. In the case of RRIRSRPPRLPRPRPRPLKAPRP, the “shrunken log2 fold change” value is reported as -0.234. With RRIRSRPPRLPRPRPRPLKVPRP the “shrunken log2 fold change” value was -0.0229. RRIRSRPPRLPRPRPRPLNEPRP was tested, and the “shrunken log2 fold change” value was -0.177. For RRIRSRPPRLPRPRPRPLQNPRP, the “shrunken log2 fold change” value was -0.0368. In the case of RRIRSRPPRLPRPRPRPLRFPRP, the “shrunken log2 fold change” value is reported as 0.926. RRIRSRPPRLPRPRPRPLRNPRP was tested, and the “shrunken log2 fold change” value was 1.38. RRIRSRPPRLPRPRPRPLRSPRP was tested, and the “shrunken log2 fold change” value was 0.747. With RRIRSRPPRLPRPRPRPLRTPRP the “shrunken log2 fold change” value was 0.787. In the case of RRIRSRPPRLPRPRPRPLSHPRP, the “shrunken log2 fold change” value is reported as -0.462. With RRIRSRPPRLPRPRPRPLTAPRP the “shrunken log2 fold change” value was -0.0374. RRIRSRPPRLPRPRPRPLTIPRP was tested, and the “shrunken log2 fold change” value was -0.201. RRIRSRPPRLPRPRPRPLTQPRP was tested, and the “shrunken log2 fold change” value was 0.243. With RRIRSRPPRLPRPRPRPLTYPRP the “shrunken log2 fold change” value was -0.132. RRIRSRPPRLPRPRPRPLVMPRP was tested, and the “shrunken log2 fold change” value was -0.316. For RRIRSRPPRLPRPRPRPLWSPRP, the “shrunken log2 fold change” value was -0.0384. For RRIRSRPPRLPRPRPRPLYIPRP, the “shrunken log2 fold change” value was -0.276. With RRIRSRPPRLPRPRPRPLYTPRP the “shrunken log2 fold change” value was -0.422. With RRIRSRPPRLPRPRPRPMAQPRP the “shrunken log2 fold change” value was 0.112. For RRIRSRPPRLPRPRPRPMCTPRP, the “shrunken log2 fold change” value was 0.0289. With RRIRSRPPRLPRPRPRPMCVPRP the “shrunken log2 fold change” value was -0.134. For RRIRSRPPRLPRPRPRPMDDPRP, the “shrunken log2 fold change” value was -0.0393. With RRIRSRPPRLPRPRPRPMDHPRP the “shrunken log2 fold change” value was -0.187. With RRIRSRPPRLPRPRPRPMHFPRP the “shrunken log2 fold change” value was 0.0521. For RRIRSRPPRLPRPRPRPMHVPRP, the “shrunken log2 fold change” value was -0.00553. RRIRSRPPRLPRPRPRPMIDPRP was tested, and the “shrunken log2 fold change” value was -0.249. RRIRSRPPRLPRPRPRPMIFPRP was tested, and the “shrunken log2 fold change” value was -0.325. With RRIRSRPPRLPRPRPRPMIVPRP the “shrunken log2 fold change” value was -0.377. With RRIRSRPPRLPRPRPRPMKMPRP the “shrunken log2 fold change” value was -0.0963. RRIRSRPPRLPRPRPRPMKYPRP was tested, and the “shrunken log2 fold change” value was -0.278. With RRIRSRPPRLPRPRPRPMMQPRP the “shrunken log2 fold change” value was -0.241. With RRIRSRPPRLPRPRPRPMNAPRP the “shrunken log2 fold change” value was 0.0215. For RRIRSRPPRLPRPRPRPMNGPRP, the “shrunken log2 fold change” value was -0.205. In the case of RRIRSRPPRLPRPRPRPMPSPRP, the “shrunken log2 fold change” value is reported as -0.194. In the case of RRIRSRPPRLPRPRPRPMPTPRP, the “shrunken log2 fold change” value is reported as 0.358. For RRIRSRPPRLPRPRPRPMRDPRP, the “shrunken log2 fold change” value was 0.0126. In the case of RRIRSRPPRLPRPRPRPMREPRP, the “shrunken log2 fold change” value is reported as 0.142. RRIRSRPPRLPRPRPRPMSFPRP was tested, and the “shrunken log2 fold change” value was -0.374. In the case of RRIRSRPPRLPRPRPRPMSRPRP, the “shrunken log2 fold change” value is reported as 0.0278. With RRIRSRPPRLPRPRPRPMSSPRP the “shrunken log2 fold change” value was -0.313. RRIRSRPPRLPRPRPRPMTFPRP was tested, and the “shrunken log2 fold change” value was -0.202. For RRIRSRPPRLPRPRPRPMTHPRP, the “shrunken log2 fold change” value was -0.469. RRIRSRPPRLPRPRPRPMWCPRP was tested, and the “shrunken log2 fold change” value was 0.136. RRIRSRPPRLPRPRPRPMWRPRP was tested, and the “shrunken log2 fold change” value was 0.1. RRIRSRPPRLPRPRPRPMYCPRP was tested, and the “shrunken log2 fold change” value was 0.0069. With RRIRSRPPRLPRPRPRPMYNPRP the “shrunken log2 fold change” value was -0.557. For RRIRSRPPRLPRPRPRPMYSPRP, the “shrunken log2 fold change” value was -1.24. In the case of RRIRSRPPRLPRPRPRPMYWPRP, the “shrunken log2 fold change” value is reported as -0.134. With RRIRSRPPRLPRPRPRPNCDPRP the “shrunken log2 fold change” value was -0.00648. With RRIRSRPPRLPRPRPRPNDAPRP the “shrunken log2 fold change” value was 0.0331. For RRIRSRPPRLPRPRPRPNDFPRP, the “shrunken log2 fold change” value was -0.19. RRIRSRPPRLPRPRPRPNDWPRP was tested, and the “shrunken log2 fold change” value was 0.179. In the case of RRIRSRPPRLPRPRPRPNFMPRP, the “shrunken log2 fold change” value is reported as -0.43. In the case of RRIRSRPPRLPRPRPRPNIIPRP, the “shrunken log2 fold change” value is reported as -0.774.
